Biological target: human p21-activated kinase 1 (PAK1) (human) (UniProt Q13153)
Experiment: cell-based or functional assay

inhibition of IL-1β induced expression of PGE2 in SW1353 cells (ELISA of supernatants): > 50%
inhibition of IL-1β-induced expression of MMP13 in SW1353 cells (ELISA of supernatants): 55%
inhibition of basal MMP13 expression in non-stimulated SW1353 cells (ELISA of supernatants): > 80%
Substance: PAK1 inhibitory domain (PAK1-ID), HA-tagged PAK1 residues 83 to 149

— US20050037965A1
